Laboratory results as given in US8535662B2, “Apyrase therapy for bleeding conditions” (Apt Therapeutics, Inc., priority 2010, dated 2013).
Marks after values point to notes of the source that are not given here.

Assays:
[1] = tested on: pigs, coronary injury with stenting; settings: pig, in vivo
[2] = tested on: ADP-induced platelet aggregation; experiment: Ex vivo ADP-induced platelet aggregation in platelet-rich plasma in pigs (Example 5); set-up: species or system pig
[3] = tested on: Fischer 344 rats, lung isograft; experiment: Orthotopic left lung transplantation in rats after 18 hours of cold preservation, ischemia-reperfusion injury (Example 9); format: in vivo, rat; settings: for TUNEL positive EC per 400× field: 4 hours after reperfusion, 0.66 mg/kg, N=7/group
Experimental: Fischer 344 rats (Harlan Sprague Dawley, Inc, Indianapolis, Ind.), weighing 250 to 300 grams, were subjected to orthotopic left lung transplantation.
The cuff technique (Robson, S. C., et al., Semin. Thromb. Hemost. (2005) 31:217 was used. In brief, after general anesthesia with intraperitoneal pentobarbital (65 mg/kg), mechanical ventilation, systemic heparinization (300 units), and median laparosternotomy, donor rat lungs were flushed through the main pulmonary artery with 20 mL of cold (4° C.) low-potassium dextran glucose solution at 20 cm H2O pressure. In apyrase agent-treated groups, 0.1 mg/L apyrase agent was added to the cold preservation medium. The heart-lung block was then removed with the lungs inflated at end-tidal volume. The left lung graft was isolated, prepared, and stored in low-potassium dextran glucose at 4° C. until transplantation. After 18 hours of cold preservation, recipient animals were anesthetized, intubated with a 14-gauge catheter, and underwent a left thoracotomy. The pulmonary vessels and bronchus were anastomosed with a standard cuff technique. In the sham group, the rats underwent anesthesia and thoracotomy alone. In apyrase agent-treated groups recipients received treatment intravenously through the internal jugular vein 7 minutes after graft reperfusion. In dose response studies apyrase agent was administered at a dose of either 0.07, 0.22 or 0.66 mg/kg of recipient weight. In all other studies apyrase agent was administered at a dose of 0.66 mg/kg of recipient weight. In the vehicle-treated groups, rats received a saline bolus 7 minutes after reperfusion.
The function of the left lung was assessed 4 hours after transplantation. Rats in each group were reanesthetized with pentobarbital. After tracheostomy, the animals were mechanically ventilated with 100% oxygen and a laparosternotomy was performed. The right hilar structures were clamped to isolate the left lung graft. The animals were ventilated for 5 minutes at a tidal volume of 1.5 mL, a respiratory rate of 100 breaths/min, and 1.0 cm H2O of positive end-expiratory pressure. Arterial blood gas analysis was performed with blood samples obtained from the ascending aorta. The lungs were flushed with 20 mL of cold (4° C.) saline solution, and the lung graft was excised and divided into 3 separate sections. The upper and middle sections were snap frozen. The upper section was used for enzyme-linked immunosorbent assay (ELISA) and the middle section was used for myeloperoxidase (MPO) assay. The lower section was weighed, dried at 70° C. for 48 hours, and then reweighed for calculation of the wet/dry (W/D) ratio.
Quantitative MPO activity was determined also previously described (Krawisz, J. E., et al., Gastroenterology (1984) 87:1344). Optical density was measured at 460 nm with a spectrophotometer (model PMQ II; Carl Zeiss, Oberkochen, Germany). Color development was linear from 5 minutes to 20 minutes. One unit of enzyme activity was defined as 1.0 optical density unit per minute per milligram of tissue protein at room temperature.
Proinflammatory cytokine and chemokine measurement was made on lung samples which were homogenized with T-PER Extraction Reagent (Pierce, Rockford, Ill.). Lung homogenates were centrifuged twice at 10,000 rpm at 4° C. for 5 min, and the supernatants were collected. The content of tumor necrosis factor-α (TNF-α, interleukin-1β (IL-1β) and macrophage inflammatory protein-2 (MIP-2) were determined by using ELISA kits (BioSource International, Inc, Camarillo, Calif.) in accordance with manufacturer's instructions.
For TUNEL assay, lung specimens harvested 4 hours after reperfusion were perfused with 20 mL isotonic sodium chloride solution and inflation fixed with 20 mL HistoChoice (Amresco Inc, Solon, Ohio). Specimens were cut, mounted, de-paraffinized, and then steam-treated with Dako target retrieval solution (Dako, Carpentaria, Calif.) and quenched with 3% hydrogen peroxide. […]

[4] = tested on: pigs, coronary injury with stenting; experiment: Coronary injury (balloon overstretch) and bare metal stent in pigs: platelet accumulation and luminal stenosis (Example 6); format: in vivo, pig; settings: 30 days after stenting, six measurements in two pigs
Experimental: Coronary injury with or without stenting in pigs is regarded as the best preclinical model for simulation of human angioplasty (Touchard, A. G., et al., Thromb. Res. (2007) 120:477-484). One coronary artery was injured by balloon overstretch in each pig and the site of injury including some overlap with the non-injured vessel was covered with a single bare metal stent (BMS).
Accumulation of ^111In-labeled autologous platelets on the stents over the first 24 h was measured in 4/6 pigs in each group. Radiolabeled platelets were injected 15 min before the coronary catheterization and the hearts perfusion-fixed after 24 h to obtain the stented vessel segment for counting radiolabeled platelets.

[5] = tested on: rats, thromboembolic stroke (MCA occlusion); experiment: Rat model of thromboembolic stroke (MCA occlusion by preformed clot), apyrase agent plus aspirin (Example 2); format: in vivo; settings: for Neurological deficits, median (interquartile range 25th to 75th), modified Bederson score: n = 10
Experimental: In this study, four experimental groups were included (n=10):
(1) control, saline injected gastrically;
(2) aspirin, 1.25 mg/kg (equivalent to 100 mg/day dose in human) injected gastrically once a day, starting 3 days prior to middle cerebral artery (MCA) occlusion and also MCA occlusion until the end of each experiment;
(3) apyrase, dose at 0.75 mg/kg injected IV at 2 h after MCA occlusion;
(4) combination group, aspirin and apyrase agent.
In this clinically relevant embolic model, ischemic brain injury was induced by embolizing preformed clots into the middle cerebral artery (MCA). Ten microliters of blood were withdrawn into a catheter and retained for 15 min to allow formation of a clot. Once the clot was formed, the catheter was advanced 17 mm in the ICA until its tip was 1-2 mm away from the origin of the MCA. The preformed clot in the catheter was then injected, and the catheter was removed. […]
Infarct was measured in the brain section stained with 2,3,5-triphenyltetrazolium chloride (TTC) solution. The infarct volume was expressed as a percentage of the total volume from the ipsilateral hemisphere.
Brain swelling (edema) was determined using a formula: edema=(the volume of the right hemisphere—the volume of the left hemisphere)/the volume of the left hemisphere.
Neurological deficits were determined using a modified Bederson's scoring system as following: 0: no observable deficit; 1: forelimb flexion; 2: forelimb flexion plus decreased resistance to lateral push; 3: unidirectional circling; 4: unidirectional circling plus decreased level of consciousness.
Hemorrhagic transformation was quantified by detection of extracellular hemoglobin content in brain homogenates using Drabkin's reagents.

B1: sol CD39L3 R67G T69R (protein)
chain: EVLPPGLKYGIVLDAGSSGTRVYVYQWPAEKENNTGVVSQTFKCSVKGSGISSYGNNPQDVPRAFEECMQKVKGQVPSHLHGSTPIHLGATAGMRLLRLQNETAANEVLESIQSYFKSQPFDFRGAQIISGQEEGVYGWITANYLMGNFLEKNLWHMWVHPHGVETTGALDLGGASTQISFVAGEKMDLNTSDIMQVSLYGYVYTLYTHSFQCYGRNEAEKKFLAMLLQNSPTKNHLTNPCYPRDYSISFTMGHVFDSLCTVDQRPESYNPNDVITFEGTGDPSLCKEKVASIFDFKACHDQETCSFDGVYQPKIKGPFVAFAGFYYTASALNLSGSFSLDTFNSSTWNFCSQNWSQLPLLLPKFDEVYARSYCFSANYIYHLFVNGYKFTEETWPQIHFEKEVGNSSIAWSLGYMLSLTNQIPAESPLIRLPIEPPV
modifications: glycosylated; synthetically constructed apyrase
blood loss from a standardized incision of the abdominal wall [1]: not increased | persistence of platelet inhibition ([2]; 0.9-2.25 mg/kg IV): at least 5 h | time after IV injection to >95% inhibition ([2]; 0.9-2.25 mg/kg IV): ≤ 5 min | inhibition of ADP-induced aggregation ([2]; 0.9-2.25 mg/kg single IV bolus with aspirin and heparin): > 95% | platelet aggregation by 24 h ([2]; 24 h after dosing): returned to normal | pulmonary edema (wet to dry weight ratio) ([3]; 0.22 mg/kg IV, 4 hours): trended to lower mean levels | lung function (arterial PO2) compared to saline-treated recipients ([3]; 0.22 mg/kg IV, 4 hours after transplantation): trend towards better lung function | lung graft histopathology (hematoxylin and eosin) compared to saline-treated recipients ([3]; 0.66 mg/kg IV 7 minutes after reperfusion): less apparent alveolar hemorrhage and microvascular injury | pulmonary edema (wet to dry weight ratio) ([3]; 0.66 mg/kg IV, 4 hours): significantly attenuated | lung function (arterial PO2) compared to saline-treated recipients ([3]; 0.66 mg/kg IV, 4 hours after transplantation): significant improvement | MPO activity in lung grafts ([3]; 4 hours): reduced | expression of E-selectin on endothelial cells ([3]; 4 hours): reduced | ADP concentration in the BAL fluid relative to saline-treated recipients ([3]; 4 hours after engraftment): significantly lower concentrations | ATP concentration in the BAL fluid relative to saline-treated recipients ([3]; 4 hours after engraftment): significantly lower concentrations | TUNEL positive EC per 400× field [3]: significantly fewer apoptotic EC | TUNEL positive EC per 400× field ([3]; listed as apyrase): three | numbers of neutrophils recovered from the airways ([3]; 4 hours after transplantation): significant decrease | total cells in the BAL ([3]; 4 hours after transplantation): significantly fewer cells | intragraft level of TNFa (ELISA) ([3]; 4 hrs of reperfusion, saline about 75): about 35 pg/mg | intragraft level of MIP-2 (ELISA) ([3]; 4 hrs of reperfusion, saline about 1,800): about 1,300 pg/mg | intragraft level of IL-1β (ELISA) ([3]; 4 hrs of reperfusion, saline about 2,200): about 1,100 pg/mg | average luminal stenosis [4]: 19.8±2% | Neurological deficits, median (interquartile range 25th to 75th), modified Bederson score ([5]; 4 h after MCA occlusion): 3 | Neurological deficits, median (interquartile range 25th to 75th), modified Bederson score ([5]; 4 h after MCA occlusion, listed as Apyrase agent): 3 (2-3) | Neurological deficits, median (interquartile range 25th to 75th), modified Bederson score ([5]; 8 h after MCA occlusion): improved | Neurological deficits, median (interquartile range 25th to 75th), modified Bederson score ([5]; 8 h after MCA occlusion, listed as Apyrase agent): 2 (2-3)*^ | infarct volume, percentage of the total volume of the ipsilateral hemisphere (mean±SD) ([5]; 24 h after MCA occlusion, aspirin 1.25 mg/kg gastrically once a day from 3 days prior, apyrase 0.75 mg/kg IV at 2 h): 17.89±2.35% | Neurological deficits, median (interquartile range 25th to 75th), modified Bederson score ([5]; 24 h after MCA occlusion): significantly less severe than the control group | Neurological deficits, median (interquartile range 25th to 75th), modified Bederson score ([5]; 24 h after MCA occlusion, listed as Apyrase agent): 1.5 (1-2)* | extracellular hemoglobin content in brain homogenates (hemorrhagic transformation, Drabkin's reagents) ([5]; 24 h after ischemic injury): 0.89±0.08 | brain edema (brain swelling) ([5]; 24 h after ischemic injury, aspirin 1.25 mg/kg, apyrase 0.75 mg/kg IV at 2 h): 6.70±0.93%
